Data reported in publication PMC6143168 (Nature genetics, 2018).

Target: T1, EsxW wildtype (2Thr) (Mycobacterium tuberculosis H37Rv, UniProt P9WNI3 1-98)
T1 sequence: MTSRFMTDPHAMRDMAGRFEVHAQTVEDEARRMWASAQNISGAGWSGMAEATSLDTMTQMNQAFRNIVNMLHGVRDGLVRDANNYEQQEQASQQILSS
Experiment: MST

B1: EsxV (natural protein)
chain: MTINYQFGDVDAHGAMIRAQAGSLEAEHQAIISDVLTASDFWGGAGSAACQGFITQLGRNFQVIYEQANAHGQKVQAAGNNMAQTDSAVGSSWA
- Kd: 600 nM
